Data on eight molecules can be found in patent US20260356933 (published 2026).

Where only a bound is given, the exact number is not on record here.

The target of this experiment is IL6 (human, UniProt P05231). In words: ELISA, apparent. In general terms: An ELISA detects its analyte on a solid surface through an enzyme-linked reagent.
IL6, sequence (P05231 30-212): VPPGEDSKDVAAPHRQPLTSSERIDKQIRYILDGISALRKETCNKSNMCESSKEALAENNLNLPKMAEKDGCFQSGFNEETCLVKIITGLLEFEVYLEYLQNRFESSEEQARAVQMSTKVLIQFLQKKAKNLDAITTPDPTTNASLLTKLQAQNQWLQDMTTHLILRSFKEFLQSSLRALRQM

B1: SIL-3B7 (antibody, V domains shown)
VH: EVQLVESGGGLVQAGGSLRLSCAASARTFSNYAMGWFRQAPGKEREFVAGISWSGGYTSYADSVKGRFTISRDNAKNTVALEMNSLKPEDTAVYYCAAEGVIDELPIKTMRYEYDYWGQGTQVTVSS
Regarding B1, the Kd was above 1000 nM.

B2: SIL-3E7 (antibody, V domains shown)
VH: EVQLVESGGGLVQAGGSLRLSCAASARTFSNYALGWFRQVPGKEREFVAGITWSGDNTYYADSVKDRFTISRDNAKNTVWLQMNSLRPEDTAVYICAAEAVLEDKVAVSTMRYEYDYWGQGTQVTVSS
For B2, the Kd is above 1000 nM.

B3: SIL-2E7 (antibody, V domains shown)
VH: EVQLVESGGGLVQAGGSLRLSCAASGRTFSKNTMGWFRQAPGKEREFVAAISWSVGSTYYGDSVNGRFTISRDDAKNTVYLQMNSLKPEDTAIYYCAADSSHYMLHPELREYDYWGQGTQVTVSS
As for B3, the Kd was 2 nM.

B4: SIL-2D1 (antibody, V domains shown)
VH: EVQLVESGGGSVQPGGSLRLSCAASGFTLADESSGWFRQAPGKEREGVSCISITDGITYYADSVKGRFTISRDNAKNTLYLQMNSLKPEDTAVYYCATGNPYCSGHAGTEYDDWGQGTQVTVSS
Turning to B4, the Kd was found to be 80 nM.

B5: SIL-2D8 (antibody, V domains shown)
VH: EVQLVESGGGLVQAGGSLRLSCTASGHNADTYAMGWFRQAPGKEREFVTGISWTGVGTYIADSVKGRFTISRDNAKNTVYLQMNSLKPEDTAVYRCAAGSDYSDSHYDKSYEYDYWGQGTQVTVSS
Regarding B5, the Kd was found to be 5 nM.

B6: SIL-2F5 (antibody, V domains shown)
VH: EVQLVESGGGLVQAGGSLRLSCAASGRAADTYAMGWFRQSPGSRREFVTGISWTGSGTYYADSVKGRFTISRDTAKNTVYLQMNSLKPEDTAVYYCAAGSDYSDSHYDKSYEYDYWGQGTQVTVSS
As for B6, the Kd is 1 nM.

B7: SIL-2E4 (antibody, V domains shown)
VH: EVQLVESGGGLVQPGGSLRLSCAASGSIFDDHAIGWFRQAPGKEREGVSSIMTSDDSTHYADSVKGRFTISRDKAKNTVYLQMNNLKPEDTAVYYCAATDVFGLQYSSFLKSYEYDYWGQGTQVTVSS
With B7, the Kd was above 1000 nM.

B8: SIL-3B6 (antibody, V domains shown)
VH: EVQLVESGGGLVQPGGSLRLSCAASGSIFDDHAIGWFRQAPGKEREGVSSIMTSDDSTHYADSVKGRFTVSRDKAKNTVYLQMNDLKPEDTAVYYCAATDVFGLQYSSFLKSYEYDYWGQGTQVTVSS
For the molecule B8, the Kd amounted to 20 nM.
